Target: T1, ULBP2 α1α2 domain, C-terminal 6×-His (human, UniProt Q9BZM5 29-212)
T1 construct: ULBP2, human, α1α2 domains, UniProtKB Q9BZM5 residues 29-212; monomeric protein; also called wild-type ULBP2; MIC-His ligand; source: Expi293 supernatant, purified (Ni-NTA); not shown: His6, C-terminal, kept
T1 sequence (looked up): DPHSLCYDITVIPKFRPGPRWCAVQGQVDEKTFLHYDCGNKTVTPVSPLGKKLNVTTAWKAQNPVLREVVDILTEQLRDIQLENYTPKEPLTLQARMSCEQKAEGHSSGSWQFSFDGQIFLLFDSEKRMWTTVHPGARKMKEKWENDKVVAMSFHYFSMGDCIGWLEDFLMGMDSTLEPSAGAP
Assay: BLI; FortéBio Octet; Fc-wtNKG2D, Fc-iNKG2D.YA or Fc-iNKG2D.AF captured on anti-human IgG Fc capture (AHC) biosensor tips; titration series of monomeric MIC-His ligands or monomeric ULBP2 variants
Settings: both partners purified

B1: Fc-wtNKG2D (Fc fusion, human, UniProt P26718 78-216, looked up)
chain: FLNSLFNQEVQIPLTESYCGPCPKNWICYKNNCYQFFDESKNWYESQASCMSQNASLLKVYSKEDQDLLKLVKSYHWMGLVHIPTNGSWQWEDGSILSPNLLTIIEMQKGDCALYASSFKGYIENCSTPNTYICMQRTV
notes: NKG2D wild-type ectodomain, human, UniProtKB P26718 residues 78-216; NKG2D is fused to the C-terminus of the Fc through a factor Xa site linker Ile-Glu-Gly-Arg (IEGR); also called wild-type NKG2D; source: Expi293 cells, secreted, purified (Protein A, SEC); not shown: Fc (human IgG1), N-terminal, kept
binding result: binds
